# T1: VACV D8 protein (vaccinia virus, UniProt P04195 1-261)
# T1 sequence: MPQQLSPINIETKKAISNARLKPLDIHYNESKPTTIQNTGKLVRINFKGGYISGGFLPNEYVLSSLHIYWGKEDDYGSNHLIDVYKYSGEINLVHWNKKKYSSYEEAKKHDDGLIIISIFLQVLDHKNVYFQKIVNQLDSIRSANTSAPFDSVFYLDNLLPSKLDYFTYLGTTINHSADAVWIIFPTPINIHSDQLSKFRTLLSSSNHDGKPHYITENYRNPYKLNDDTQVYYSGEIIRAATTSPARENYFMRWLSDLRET
# T2: VACV A27 protein (vaccinia virus, UniProt P11258 1-110)
# T2 sequence: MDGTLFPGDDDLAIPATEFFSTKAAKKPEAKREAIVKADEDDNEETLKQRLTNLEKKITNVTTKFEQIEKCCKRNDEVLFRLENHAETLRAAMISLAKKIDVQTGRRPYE
# B1: VACV-230 (antibody, V domains shown)
# VH: QVQLVQSGAEVKKPGASVKVSCKVSGYTLTELSMHWVRQAPGKGLEWLGGFDPEDGETIYAQKFQGRVTMTEDTSTDTAYMELSSLRSEDTAVYYCARESWLRGFDYWGQGTLVTVS
# VL: not shown
# notes: human IgG1, anti-D8
# B2: MPXV-96 (antibody, V domains shown)
# VH: QVQLQQWGAGLLISSETLSLTCGVYGGSFSGYYWTWIRQPPGKGLEWIGEINYVGSTNYNPSLKSRVTMSVDTSKNHFSLSLSSVTAADTAVYYCARGLRGNSVCFDWGPGTLV
# VL: ELVMTQSPATLSVSPGERASLSCRASQSVSSNLAWYQQKPGQAPRLLIYGASTRATGLPARFSGSGSGTEFTLTISSLQSEDFAIYYCQQYNNWPRTFGQGTKVDI
# notes: human IgG1, anti-D8
# B3: MPXV-30 (antibody, V domains shown)
# VH: QVQLVQSGAEVKKPGSSVKVSCKVSGGTFSSLAINWVRQAPGQGLEWMGGIIPIFGKANYAQKFQGRVSIIADESTSTAYMDLSSLRFEDTAVYYCATGGNIRVHDFDIWGQGTLVIVSS
# VL: not shown
# notes: human IgG1, anti-D8
# B4: VACV-302 (antibody, V domains shown)
# VH: QLQLQESGPGLVKPSETLSLTCTVSGGSIISSSYYWGWIRQPPGKGLEWLGSIYYSGSTYYNPSLKSRVTISVDTSKNQFSLKVTSVTAADTAVYYCARQISKAAAGSIDYWGQGTLVTVS
# VL: not shown
# notes: human IgG1, anti-A27
# B5: VACV-59 (antibody, V domains shown)
# VH: QVQLVQSGGGLVKPGGSLRLSCAASGFTFSDYYMSWIRQAPGKGLEWVSYISTSGSTIYYADSVKGRFTISRDNAKNSLYLQMNSLRAEDTAMYYCARDGDGSGSYTPPYYYYGLDVWGQGTTVTVSS
# VL: DIQMTQSPSSLSASVGDRVTITCRASQSIRNYLNWYQQKSGKAPKLLIYAASSLQSGVPSRFSGSGSGTDFTLTISSLHPEDFATYYCQQSYSTPPLTFGGGTKVEIK
# notes: human IgG2, anti-B5
# B6: VACV-300 (antibody, V domains shown)
# V domain 1: QVQLVQSGAEVKKPGSSVKVSCKASGGTFSSYAISWVRQAPGQGLEWMGGIIPIFGTANYAQKFQGRVTITADESTGTAYMELTSLRSEDTAIYYCARASEQWLASINWFDPWGQGTLVTVSS
# V domain 2: QSALTQPASVSGSPGQSITISCTGTSSDVGSYNLVSWYQQHPGKAPKLMIYEVSKRPSGVSNRFSASKSGNTASLTISGLQAEDEADYYCCSYAGSSTLVFGGGTQVTVL
# notes: human IgG1, anti-A27
# B7: VACV-56 (antibody, V domains shown)
# VH: QVQLQQWGAGLLKPSETLSLTCAVYGGSFSGYYWSWIRQPPGKGLEWIGEINHSGSTNYNPSLKSRVTISVDTSKSQFSLKLSSVTAADTAVYYCARATQGSGTYKLFFYSYGMDVWGQGTTVTVSS
# VL: not shown
# notes: human IgG1, anti-D8
# B8: VACV-303 (antibody, V domains shown)
# VH: EVQLLESGGGLVQPGGSLRLSCAASGFTFSSYAMSWVRQAPGKGLEWVSAISGTGGNTYYADSVKGRFTISRDKSKNTLYLQMHSLRAEDTAVYYCATSLIWWLQSDYWGQGTLVTVSS
# VL: DIQMTQSPSSLSASVGDRVTITCRASQSIASYLIWYQQKPGNAPKLLIYAASSLQSGVPSRFSGSGSGTDFTLTISSLQPEDFATYYCQQSYSTPQTFGQGTKVDIK
# notes: human IgG1, anti-A27
# B9: MPXV-39 (antibody, V domains shown)
# VH: QVQLQQWGAGLLKPSETLSLTCAIYGGSLSGQYWSWIRQPPGRGLEWIGEIHHKGRTNYNPSLKSRVTISIDTSQRQFSLRLTSVSAADTAVYYCASGNYRLGQGTLVTF
# VL: DVVLTQSPLTLPVTLGQPASISCRSSQSLVYSDGDTYLNWFQQRPGQAPRRLIYKVSKRDFGVPDRFSGSGSGTDFTLRISRVEAEDVGVYYCMQGTHWPRTFGQGTQVDIK
# notes: human IgG3, anti-A33
# B10: MPXV-12 (antibody, V domains shown)
# VH: QVQLQQWGAGLLKPSETLSLTCAVYGGSFTNYYWSWIRQFPGKGLEYIGEIDHSGSANYNPSLKSRVTISLDTSKNQFSLRLSSVTAADTAVYFCARDVYGSGTYYWFDPWGQGTL
# VL: DIQMTQSPTSLSASVGDRVTITCRASQRISSHLNWYQQKPGKAPKLLIYVASSLQSGVPSRFSGSGSGTDYTLTISSLQPEDFATYFCQQSYTTPYTFGQGTNLQMK
# notes: human IgG3, anti-B5
# B11: VACV-301 (antibody, V domains shown)
# VH: EVQLLESGGGLVQPGGSLRLSCAASGFSFSSYAMSWVRQAPGKGLEWVSGIGNSGDRTFYADSAKGRFTIFRDNSNNRLYLQMNSLRAADTAVYYCAKWGRFESGAFWGQGVLVTVSS
# VL: SYELTQSPSVSVSPGQTARITCSGDALPEQYAYWYQQKPGQAPVLVIYKDSERPSGIPERFSGSGSGTTVTLTITGVQAEDEADYYCQSADNSGTYEVFGTGTKVTVL
# notes: human IgG3, anti-A27
# B12: VACV-136 (antibody, V domains shown)
# V domain 1: QVTLKESGPVLVNPTETLTLTCTVSGFSLSNARMRVSWIRQPPGKALEWLAHIFSNDEKSYSTSLKSRLTISKDTSKSQVVLTMTNMDPVDTASYYCARMRGEYNSYYFDSWGQGTLVTVS
# V domain 2: SYELTQPPSVSVSPGQTARITCSGDALPNQYAYWYQQKPGQAPVLVIYKDSERPSGIPERFSGSSSGTTVTLTISGVQAEDEADYYCQSADSSGTSVVFGGGTQVTV
# notes: human IgG1, anti-D8
# B13: VACV-154 (antibody, V domains shown)
# VH: EVQLLESGGGLVQPGESLRLSCAASGFTLRNYAMSWVRQTPGKGLEWVSAISGSGGSTYYADSVKGRFTISRDTSKNTLYVQMNSLRAEDTAVYYCAKIRLDSSGYSGAFDIWGQGTRVTVSS
# VL: SYELTQPPSVSVSPGQTARITCSGDALPKQYASWYQQKPGQAPVLVIYKDSERPSGIPERFSGSSSGTTVTLTISGVQAEDEADYYCQSADSSGTYPVVFGGGTQLTVL
# notes: human IgG1, anti-A27
# B14: VACV-282 (antibody, V domains shown)
# VH: EVQLVESGGGLVKPGGSLRLSCAASGFTFSSYSMNWVRQAPGKGLEWVSSISSISSYIYYADSVKGRFTISRDNAKNSLYLQMNSLRAEDTAVYYCARDRPRSRPNSGSYFWYYYGMDVW
# VL: SYELTQPPSVSVAPGQTARITCGGNNIGSKSVHWYQQKPGQAPVLVVYDDSDRPSGIPERFSGSNSGNTATLTISRVEAGDEADYYCQVWDSNSDHRVSA
# notes: human IgG1, anti-B5
# B15: VACV-8 (antibody, V domains shown)
# VH: QVQLQQWGAGLLKPSETLSLTCAGYGGSFSGYFWSWIRQPPGKGLEWIGEINHSGSTDYNPSLKSRVTISLDTSKTQFSLKLSSVTAADTAVYYCARVMTGITNYYYYYGMDVWGQGTTVTF
# VL: DIQLTQSPSFLSASVGDRVTITCRASQDISSYLAWYQQKPGKAPKLLIYAASTLQSGVPSRFSGSESGTEFTLTISSLQPENFATYYCQHLNSYPRGYTFGQGTKVDIK
# notes: human IgG1, anti-D8
# B16: MPXV-61 (antibody, V domains shown)
# V domain 1: QVQLVQSGAEVKKPGSSVKVSCKASGETFSRYAFSWVRLAPGQGLEWLGRIIPFIDIPNYAQKFQGRVTITADKSTSTAYMELSSLRSEDTAVYYCASSLPSTYYFGSGNYPWGNWLDPWGQGTLVTVSS
# V domain 2: QSVVTQPPSVSAAPGQNVTISCSGSSSNIGNNYVSWYHQLPGTAPKLLIYDNDKRPSGIPDRFSGSKSGTSATLGITGLQTGDEADYYCGTWDSSLSEVVFGGGTQVTVL
# notes: human IgG1, anti-D8
# B17: MPXV-43 (antibody, V domains shown)
# VH: QVQLVQSGAEVKKPGASVKVSCKASGYTFTKYTIHWVRQAPGQRLEWVGGIYAGYGNTRYSQKFQGRVTITRDTSASTAYMELSSLRSEDTAVYFCARDFEDFDSWTGYYSWLHWGQGTLVTVSS
# VL: EIVLTQSPGTLSLSPGERATLSCRASQSVSSTYLAWYQQKPGQAPRLLIYGASSRATGIPDRFSGSGSGTDFTLTITRLEPEDFAMYFCQQYDSSPSITFGQGTRLEIK
# notes: human IgG1, anti-B5
# B18: VACV-1 (antibody, V domains shown)
# VH: EVQLVESGGGLVQPGESLKISCAASGFTFSSFSMNWVRQAPGKGLEWVSYISSSSSTIYYADSVKGRFTISRDNAKNSLYLQMNSLRDEDTAVYYCARRSVGCSGGNCYAYYYGMDVWGQGTTVTVS
# VL: not shown
# notes: human IgG1, anti-B5
# How the values were obtained:
# VACV D8 protein [1] = molecular target: T1, VACV D8 protein; assay: cell-based or functional assay
# VACV D8 protein [2] = molecular target: T1, VACV D8 protein; assay: lysate ELISA
# VACV A27 protein [3] = molecular target: T2, VACV A27 protein; assay: cell-based or functional assay
# VACV A27 protein [4] = molecular target: T2, VACV A27 protein; assay: lysate ELISA
# VACV A27 protein [5] = molecular target: T2, VACV A27 protein; assay: purified antigen ELISA
# VACV B5 protein [6] = molecular target: T3, VACV B5 protein (vaccinia virus, UniProt Q01227 20-275); assay: cell-based or functional assay
# VACV B5 protein [7] = molecular target: T3, VACV B5 protein; assay: purified antigen ELISA
# VACV A33 protein = VACV A33 protein (vaccinia virus, UniProt P68617 58-185); assay: purified antigen ELISA
# VACV B5 protein [8] = molecular target: T3, VACV B5 protein; assay: lysate ELISA
binder,measurement,setting,value
B1,"PRNT Emax, VACV MV+C'",VACV D8 protein [1],77%
same,"PRNT IC50, VACV MV+C'",VACV D8 protein [1],0.1 µg/mL
same,EC50,VACV D8 protein [2],0.6 µg/mL
B2,EC50,VACV D8 protein [2],0.001 µg/mL
B3,EC50,VACV D8 protein [2],0.004 µg/mL
B4,"PRNT Emax, VACV MV",VACV A27 protein [3],81%
same,"PRNT Emax, VACV MV+C'",VACV A27 protein [3],53%
same,"PRNT IC50, VACV MV",VACV A27 protein [3],12.3 µg/mL
same,"PRNT IC50, VACV MV+C'",VACV A27 protein [3],0.1 µg/mL
same,EC50,VACV A27 protein [4],0.01 µg/mL
same,EC50,VACV A27 protein [5],0.08 µg/mL
B5,"PRNT Emax, VACV EV+C'",VACV B5 protein [6],72%
same,"PRNT IC50, VACV EV+C'",VACV B5 protein [6],0.2 µg/mL
same,EC50,VACV B5 protein [7],0.14 µg/mL
B6,EC50,VACV A27 protein [4],> 0.37 µg/mL
same,EC50,VACV A27 protein [5],0.22 µg/mL
B7,"PRNT Emax, VACV MV+C'",VACV D8 protein [1],81%
same,"PRNT IC50, VACV MV+C'",VACV D8 protein [1],0.04 µg/mL
same,EC50,VACV D8 protein [2],0.01 µg/mL
B8,EC50,VACV A27 protein [4],0.05 µg/mL
same,EC50,VACV A27 protein [5],0.02 µg/mL
B9,EC50,VACV A33 protein,0.07 µg/mL
B10,EC50,VACV B5 protein [8],5.85 µg/mL
same,EC50,VACV B5 protein [7],0.1 µg/mL
B11,"PRNT Emax, VACV MV",VACV A27 protein [3],61%
same,"PRNT Emax, VACV MV+C'",VACV A27 protein [3],77%
same,"PRNT IC50, VACV MV",VACV A27 protein [3],0.5 µg/mL
same,"PRNT IC50, VACV MV+C'",VACV A27 protein [3],0.1 µg/mL
same,EC50,VACV A27 protein [4],> 21 µg/mL
same,EC50,VACV A27 protein [5],0.03 µg/mL
B12,"PRNT Emax, VACV MV+C'",VACV D8 protein [1],84%
same,"PRNT IC50, VACV MV+C'",VACV D8 protein [1],0.4 µg/mL
same,EC50,VACV D8 protein [2],0.06 µg/mL
B13,EC50,VACV A27 protein [4],> 0.1 µg/mL
same,EC50,VACV A27 protein [5],0.06 µg/mL
B14,EC50,VACV B5 protein [7],0.155 µg/mL
B15,"PRNT Emax, VACV MV+C'",VACV D8 protein [1],74%
same,"PRNT IC50, VACV MV+C'",VACV D8 protein [1],0.3 µg/mL
same,EC50,VACV D8 protein [2],0.04 µg/mL
B16,EC50,VACV D8 protein [2],0.007 µg/mL
B17,EC50,VACV B5 protein [8],0.011 µg/mL
same,EC50,VACV B5 protein [7],10.1 µg/mL
B18,EC50,VACV B5 protein [7],0.02 µg/mL
